Source: US20250277030A1 (Zymeworks, published 2025)

Experiments:
[1] = biological target: T1, human sodium-dependent phosphate transporter 2B (NaPi2b) (human, UniProt O95436 1-690); experiment: flow cytometry, IGROV-1 cells (endogenous NaPi2b)
T1 construct: UniProt ID is given as 095436 [sic]; also called hNaPi2b; Hu NaPi2b
T1 sequence: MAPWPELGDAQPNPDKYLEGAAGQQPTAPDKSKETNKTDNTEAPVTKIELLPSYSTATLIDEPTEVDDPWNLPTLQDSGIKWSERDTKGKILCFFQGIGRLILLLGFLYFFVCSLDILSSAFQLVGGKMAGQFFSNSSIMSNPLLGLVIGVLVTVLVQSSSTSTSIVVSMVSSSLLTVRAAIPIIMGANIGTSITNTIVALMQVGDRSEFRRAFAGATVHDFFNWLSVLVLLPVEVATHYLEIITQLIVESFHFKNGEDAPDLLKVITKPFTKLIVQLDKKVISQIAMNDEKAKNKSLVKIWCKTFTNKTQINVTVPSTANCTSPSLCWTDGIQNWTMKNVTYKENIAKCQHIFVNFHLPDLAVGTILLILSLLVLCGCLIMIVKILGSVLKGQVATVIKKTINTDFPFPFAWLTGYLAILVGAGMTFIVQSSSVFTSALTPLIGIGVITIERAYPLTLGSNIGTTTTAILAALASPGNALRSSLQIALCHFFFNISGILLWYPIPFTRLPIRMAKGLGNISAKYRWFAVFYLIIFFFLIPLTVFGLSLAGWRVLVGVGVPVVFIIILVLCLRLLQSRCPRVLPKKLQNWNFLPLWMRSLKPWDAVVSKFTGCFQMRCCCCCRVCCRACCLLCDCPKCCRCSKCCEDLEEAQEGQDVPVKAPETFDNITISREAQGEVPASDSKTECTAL
Method: (§1) Briefly, HEK293-6e cells were transfected for ˜24 hours to transiently express human NaPi2b, cynomolgus or mouse NaPi2b, at 1 μg of DNA per 1 million cells. Following transfection, 50,000 cells per well were seeded in V-bottom 96-well plates and incubated with 200 nM of primary antibody for 18-24 hours at 4° C. to prevent internalization. Post-incubation, cells were washed and stained with anti-Human IgG Fc AF647 conjugate (Jackson Immuno Research Labs, West Grove, PA, Cat. No. 109-605-098, Lot. No. 124868) at 4° C. for 1 hour. Following staining and washing, fluorescence was detected by flow cytometry on BD LSRFortessa™ Cell Analyzer (BD Biosciences, Franklin Lake, NJ) with 10,000 minimum events collected per well. The AF647/APC-A GeoMean (fluorescence signal geometric mean, proportional to anti-Human AF647 binding) was calculated for the live singlet cell population for each primary antibody using FlowJo™ v8 software (BD Biosciences, Franklin Lake, NJ). The Bmax and Kd of each primary antibody were calculated using GraphPad Prism Version 9 (GraphPad Software, San Diego, CA)
(§2) The ability of ADCs to bind to cells expressing NaPi2b was assessed. […] Binding to endogenous high NaPi2b-expressing cell lines IGROV-1 and HCC-78 was assessed by flow cytometry according to methods described in Example 5.

[2] = biological target: T1, human sodium-dependent phosphate …; experiment: flow cytometry, HEK293-6e cells transfected with human NaPi2b
Method: (§3) The binding cross-reactivity of humanized antibody variant v29456 to human, cynomolgus and mouse NaPi2b was assessed by flow cytometry using HEK293-6e transfected cells.
as §1

[3] = biological target: T1, human sodium-dependent phosphate …; experiment: flow cytometry, IGROV-1 cells (endogenous NaPi2b); apparent Kd
Method: as §1, §2

[4] = biological target: T1, human sodium-dependent phosphate …; experiment: as above; remark: listed apart in the source
Method: (§4) Briefly, cells were seeded at 50,000 cells/well in conical-bottom 96-well plates and treated with test antibody for 24 hours at 4° C. to prevent internalization. […] Following incubation, cells were washed and stained with anti-Human IgG Fc AF647 conjugate (Jackson Immuno Research Labs, West Grove, PA; Cat. No. 109-605-098) at 4° C. for 30 min. Following incubation and washing, fluorescence was detected by flow cytometry on a BD LSRFortessa™ Cell Analyzer (BD Biosciences, Franklin Lake, NJ) with 1,000 minimum events collected per well. The AF647/APC-A GeoMean (fluorescence signal geometric mean, proportional to anti-Human AF647 binding) was calculated for the live cell population using FlowJo™ Version 10.8.1 (BD Biosciences, Franklin Lake, NJ) and plotted for each test antibody using GraphPad Prism Version 9 (GraphPad Software, San Diego, CA).
(§5) The ability of the humanized antibody variants v38591 and v29456 to bind to NaPi2b expressed on cells was assessed on endogenous NaPi2b-expressing tumor cell lines IGROV-1 (ovarian adenocarcinoma) and TOV-21G (ovarian carcinoma) by flow cytometry.
(§6) Cellular binding was performed according to methods described in Example 13.

[5] = biological target: T2, KLH (Sigma-Aldrich, H8283); experiment: non-specific binding ELISA, KLH coated at 5 µg/mL, antibody at 100 nM
T2 construct: also called keyhole limpet hemocyanin
Method: NS-ELISA was carried out in Corning®96-well EIA/RIA Easy Wash™ Clear Flat Bottom Polystyrene High Bind Microplate coated overnight at 4° C. with 50 μL of Heparin (Sigma, H3149) diluted with 50 mM sodium carbonate pH 9.6 to a final concentration of 250 μg/mL. The plate was incubated for 2 days at room temperature, wells that were coated with heparin were not covered to allow air dry. […] 50 μL each of insulin, KLH, dsDNA and ssDNA were added to a 96 well plate, followed by the incubation at 37° C. for 2 h. The coating materials were removed, and the plate was blocked with 200 μL of Gibco™ PBS pH7.4, 0.1% Tween®20, and incubated for 1 h at room temperature with shaking at 200 rpm. The plate was washed 3 times with Gibco™ PBS pH7.4, 0.1% Tween 20. […] Reactions were stopped after approximately 10 minutes by adding 100 μL of 1 M HCl to each well, and absorbance was read at 450 nm. Binding scores were calculated as the ratio of the ELISA signal of the antibody (antibody-treated) to the signal of a well containing buffer instead of the primary antibody (untreated). The cutoffs considered for each binding molecule (ssDNA, KLH, insulin, dsDNA and heparin) were internally calculated, based on the average of Zymeworks Inc. produced antibodies and antibodies benchmarks published in the literature.

[6] = biological target: T1, human sodium-dependent phosphate …; experiment: flow cytometry, HEK293-6e cells transfected with human NaPi2b; apparent Kd
Method: as §3, §1

[7] = biological target: T1, human sodium-dependent phosphate …; experiment: flow cytometry on TOV-21G cells (endogenous NaPi2b), 24 h at 4 C, anti-human IgG Fc AF647 detection
Method: as §4, §5, §6

B1: v29456 humanized anti-NaPi2b antibody (H1L2) (antibody, human IgG1, kappa)
heavy: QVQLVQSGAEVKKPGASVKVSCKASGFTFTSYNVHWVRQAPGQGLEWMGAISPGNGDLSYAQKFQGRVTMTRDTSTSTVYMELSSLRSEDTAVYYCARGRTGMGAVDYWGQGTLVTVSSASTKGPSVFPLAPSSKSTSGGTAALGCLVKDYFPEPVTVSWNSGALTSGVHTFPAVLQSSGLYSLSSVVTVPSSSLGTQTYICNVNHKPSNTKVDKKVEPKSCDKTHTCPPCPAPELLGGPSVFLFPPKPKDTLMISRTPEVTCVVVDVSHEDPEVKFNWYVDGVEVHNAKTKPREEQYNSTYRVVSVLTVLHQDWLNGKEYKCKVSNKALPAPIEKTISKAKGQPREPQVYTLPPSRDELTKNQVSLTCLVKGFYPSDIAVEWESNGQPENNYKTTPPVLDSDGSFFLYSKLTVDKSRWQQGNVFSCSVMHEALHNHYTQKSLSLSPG
light: DVQMTQSPSSLSASVGDRVTITCRASQDVYSYLNWYQQKPGKAVKLLIYYTSRLQSGVPSRFSGSGSGTDYTLTISSLQPEDFATYYCQQYNIFPWTFGQGTKLEIKRTVAAPSVFIFPPSDEQLKSGTASVVCLLNNFYPREAKVQWKVDNALQSGNSQESVTEQDSKDSTYSLSSTLTLSKADYEKHKVYACEVTHQGLSSPVTKSFNRGEC
[1]
  Bmax (MFI): 78100 MFI
[2]
  Bmax (APC-A GeoMean): 2540 APC-A GeoMean
[3]
  Kd: 0.65 nM
[4]
  Kd: 1.28 nM
[5]
  NS-ELISA binding score (ratio of signal between antibody-treated and untreated): 1.37 ratio
[6]
  Kd: 5.2 nM
[7]
  EC50 (read off the curve): ~0.7 nM
